# Reference: article PMC9638919, “DAZL regulates proliferation of human primordial germ cells by direct binding to precursor miRNAs and enhances DICER processing activity”
# T1: GST-DAZL (UniProt Q92904 1-295)
# T1 sequence: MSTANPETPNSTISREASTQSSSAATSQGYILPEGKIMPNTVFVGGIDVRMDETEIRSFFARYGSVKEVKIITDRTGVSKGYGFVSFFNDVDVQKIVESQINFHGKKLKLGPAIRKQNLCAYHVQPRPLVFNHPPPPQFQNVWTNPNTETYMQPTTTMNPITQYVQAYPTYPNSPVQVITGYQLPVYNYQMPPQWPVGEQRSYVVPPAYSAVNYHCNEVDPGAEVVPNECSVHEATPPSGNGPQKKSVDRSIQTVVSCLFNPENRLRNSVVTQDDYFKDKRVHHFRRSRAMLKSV
# T2: GST-RRM (DAZL RRM domain) (UniProt Q92904 40-115)
# T2 sequence: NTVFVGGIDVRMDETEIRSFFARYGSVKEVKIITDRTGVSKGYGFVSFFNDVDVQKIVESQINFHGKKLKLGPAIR
# B1: pre-miR-199a (structured_RNA)
# RNA: GCCAACCCAGUGUUCAGACUACCUGUUCAGGAGGCUCUCAAUGUGUACAGUAGUCUGCACAUUGGUUAGGC
# B2: pre-let-7c (structured_RNA)
# RNA: GCAUCCGGGUUGAGGUAGUAGGUUGUAUGGUUUAGAGUUACACCCUGGGAGUUAACUGUACAACCUUCUAGCUUUCCUUGGAGC
# B3: pre-let-7i (structured_RNA)
# RNA: CUGGCUGAGGUAGUAGUUUGUGCUGUUGGUCGGGUUGUGACAUUGCCCGCUGUGGAGAUAACUGCGCAAGCUACUGCCUUGCUA
# B4: pre-miR-185 (structured_RNA)
# RNA: AGGGGGCGAGGGAUUGGAGAGAAAGGCAGUUCCUGAUGGUCCCCUCCCCAGGGGCUGGCUUUCCUCUGGUCCUUCCCUCCCA
# Experiments:
# GST-DAZL [1] = biological target: T1, GST-DAZL; assay: EMSA; 3000 nM DAZL; 10 mM HEPES pH 7.4, 50 mM KCl, 1 mM EDTA, 0.05% Triton X-100, 5% glycerol, 0.01 mg/ml BSA, 1 mM DTT; 10 nM FAM-RNA, 40 min; temperature not stated; conditions: protein: recombinant; tags: N-terminal GST; label: 5'-FAM; hairpin
# GST-DAZL [2] = biological target: T1, GST-DAZL; assay: EMSA; 5000 nM DAZL; 10 mM HEPES pH 7.4, 50 mM KCl, 1 mM EDTA, 0.05% Triton X-100, 5% glycerol, 0.01 mg/ml BSA, 1 mM DTT; 10 nM FAM-RNA, 40 min; temperature not stated; conditions: protein: recombinant; tags: N-terminal GST; label: 5'-FAM; hairpin
# GST-DAZL [3] = biological target: T1, GST-DAZL; assay: EMSA; only slightly affected vs wild type; 10 mM HEPES pH 7.4, 50 mM KCl, 1 mM EDTA, 0.05% Triton X-100, 5% glycerol, 0.01 mg/ml BSA, 1 mM DTT; 10 nM FAM-RNA, 40 min; temperature not stated; conditions: protein: recombinant; tags: N-terminal GST; label: 5'-FAM
# GST-DAZL [4] = biological target: T1, GST-DAZL; assay: EMSA; 10 mM HEPES pH 7.4, 50 mM KCl, 1 mM EDTA, 0.05% Triton X-100, 5% glycerol, 0.01 mg/ml BSA, 1 mM DTT; 10 nM FAM-RNA, 40 min; temperature not stated; conditions: protein: recombinant; tags: N-terminal GST; label: 5'-FAM
# [5] = biological target: T2, GST-RRM (DAZL RRM domain); assay: as above; conditions: protein: recombinant; tags: N-terminal GST; label: 5'-FAM; hairpin
Binder,binding signal (GST-DAZL [1]) [% shifted],binding signal (GST-DAZL [2]) [% shifted],also measured
B1,18.1,22.1,
B2,37.4,41.3,
"UAGAAUUACACCCUGGGAAUUAA (ssRNA) [pre-let-7c loop, first G to A in both GUU]",,,binding result (GST-DAZL [3]): binds
B3,37,50.9,
"UAGAGAUACACCCUGGGAGAUAA (ssRNA) [pre-let-7c loop, second U to A in both GUU]",,,binding result (GST-DAZL [3]): binds
UAGAGUUACACCCUGGGAGUUAA (ssRNA) [pre-let-7c loop],,,binding result (GST-DAZL [4]): binds
B4,,,binding result [5]: no binding
